Results taken from patent publication US6887705B1, “Tyrosine phosphorylated cleavage furrow-associated proteins (PSTPIPs)” (Genentech, Inc., priority 1997, dated 2005).
Residue numbers refer to the chain shown, from its start. In names and notes the source's numbering stands. Values belong to the binder of their own block, whether it stands above or below them.

Key:
[1] = target: T1, PTP HSCF with R444 mutated to alanine, HA tagged (UniProt Q61152 1-453); assay: in vitro translated PTP HSCF mutant precipitated with 1 or 10 µg/ml GST PST PIP
T1 construct: range 1-453; also called HSCF R444
T1 sequence (looked up): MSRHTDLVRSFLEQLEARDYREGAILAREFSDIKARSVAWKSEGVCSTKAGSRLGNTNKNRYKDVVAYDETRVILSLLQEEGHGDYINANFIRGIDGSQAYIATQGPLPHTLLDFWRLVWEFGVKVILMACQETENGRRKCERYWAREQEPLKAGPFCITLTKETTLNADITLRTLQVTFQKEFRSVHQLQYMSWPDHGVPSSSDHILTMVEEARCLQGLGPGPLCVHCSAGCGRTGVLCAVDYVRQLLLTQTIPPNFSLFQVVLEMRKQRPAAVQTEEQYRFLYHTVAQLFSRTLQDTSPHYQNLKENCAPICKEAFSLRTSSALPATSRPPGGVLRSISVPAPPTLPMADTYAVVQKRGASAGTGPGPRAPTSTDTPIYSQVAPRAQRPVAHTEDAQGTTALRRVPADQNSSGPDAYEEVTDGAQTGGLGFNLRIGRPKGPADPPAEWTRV
Experimental: Multiple bands precipitated with the GST PST PIP fusion protein are apparently C-terminal proteolyzed products of the PTP. Also shown are GST PST PIP precipitations (10 μg/ml) performed on a double mutant of PTP HSCF (R+W) with both residues $R444$ and $W450$ mutated to alanine (bottom panel FIG. 14 A/2). B. COS cells were co-transfected with a 10:1 ratio of plasmids encoding hemagglutinin (HA) tagged PTP HSCF with the illustrated alanine substitutions or a mutant of PTP HSCF deleted for the C-terminal 24 amino acids (PTP $HSCFD24$) and wild type PST PIP with a C-terminal FLAG epitope tag, respectively. Transfected cell lysates were immunoprecipitated with anti-HA monoclonal antibodies and the precipitates were blotted with anti-PST PIP polyclonal antibody to detect the relative amounts of PST PIP complexed with either wild type or different mutant forms of PTP HSCF. Lysates were also immunoprecipitated with anti-HA antibody and blotted with the same antibody to insure equal expression of PTP HSCF. Equal expression of PSTPIP was determined by immunoprecipitating lysates with anti-FLAG monoclonal antibody and blotting with anti-PST PIP polyclonal antibody.
In vitro binding analyses between various PTP HSCF and PST PIP constructs were performed as previously described (Spencer et al, (1997), supra). Briefly, plasmids were transcribed and translated in vitro using the TnT Rabbit Reticulocyte Lysate System (Promega). Samples were diluted in 50 mM HEPES, pH 7.2, 1% triton X-100, 10% glycerol, 100 mM NaCl, and 2 µg/ml each of leupeptin, pepstatin, aprotinin and PMSF (lysis buffer). Samples were than reacted with GST fusion proteins at various concentrations, and the bound proteins were centrifuged using glutathione-sepharose beads and analyzed on SDS polyacrylamide gels. C-terminally-derived peptide inhibition studies were performed by incubating the GST fusion protein binding reactions in the presence of 10 µg/ml of the indicated peptides. Peptides were produced by FMOC-protected amino acids as previously described (Spencer et al, (1997), supra). In vivo interactions between various forms of PTP HSCF and PST PIP were also performed as previously described (Spencer et al, (1997), supra).

[2] = target: T2, full-length PTP HSCF with an N-terminal hemagglutinin epitope tag (UniProt Q61152 1-453); assay: co-immunoprecipitation from co-transfected COS cells
T2 construct: range 1-453; In vitro translated or expressed in COS cells; also called the phosphatase; wild type PTP HSCF
T2 sequence (looked up): T1 sequence (looked up) with A444R
From the text: The resultant precipitates were resolved on SDS polyacrylamide gels and probed with anti-FLAG antibody (to detect PST PIP), anti-HA antibody (to detect PTP HSCF) and anti-pY (anti-phosphotyrosine antibody) to detect this modified residue on these proteins. Note that the $W232A$ mutant of PST PIP is neither coprecipitated with PTP HSCF nor is it "substrate trapped" (as determined by hyperphosphorylation) by the dominant negative (C-S) form of PTP HSCF, while the wild type form of the protein (PST PIP wt) is found in a complex with precipitated PTP HSCF and is hyperphosphorylated ("substrate trapped" (Jia et al., *Science* 268(5218):1754–1758 (1995); Garton et al., *Mol. Cell. Biol.* 16(11):6408–6418 (1996); Flint et al., *Proc. Natl. Acad. Sci. USA* 94(5):1680–1685 (1997); Spencer et al. (1997), supra)) by dominant negative (C-S) PTP HSCF.
In vitro binding analyses between various PTP HSCF and PST PIP constructs were performed as previously described (Spencer et al, (1997), supra). Briefly, plasmids were transcribed and translated in vitro using the TnT Rabbit Reticulocyte Lysate System (Promega). […] Samples were than reacted with GST fusion proteins at various concentrations, and the bound proteins were centrifuged using glutathione-sepharose beads and analyzed on SDS polyacrylamide gels. […]

- binding result [1]: binds
B1: GST-PSTPIP (GST fusion of full-length PSTPIP, amino acids 2-415) (other)
chain: MAQLQFRDAFWCRDFTAHTGYEVLLQRLLDGRKMCKDVEELLRQRAQAEERYGKELVQIARKAGGQTEMNSLRTSFDSLKQQTENVGSAHIQLALALREELRSLEEFRERQKEQRKKYEAIMDRVQKSKLSLYKKTMESKKAYDQKCRDADDAEQAFERVSANGHQKQVEKSQNKAKQCKESATEAERVYRQNIEQLERARTEWEQEHRTTCEAFQLQEFDRLTILRNALWVHCNQLSMQCVKDDELYEEVRLTLEGCDVEGDINGFIQSKSTGREPPAPVPYQNYYDREVTPLIGSPSIQPSCGVIKRFSGLLHGSPKTTPSAPAASTETLTPTPERNELVYASIEVQATQGNLNSSAQDYRALYDYTAQNSDELDISAGDILAVILEGEDGWWTVERNGQRGFVPGSYLEKL
notes: Made in DH5-alpha bacteria from pGEX4T-2; also called GST-full-length PSTPIP; GST PTP PIP; not shown: glutathione S-transferase encoded by pGEX-4T-2 (Pharmacia)

- binding result [2]: no binding
B2: W232A mutant of PST PIP, C-terminal FLAG (other)
chain: MMAQLQFRDAFWCRDFTAHTGYEVLLQRLLDGRKMCKDVEELLRQRAQAEERYGKELVQIARKAGGQTEMNSLRTSFDSLKQQTENVGSAHIQLALALREELRSLEEFRERQKEQRKKYEAIMDRVQKSKLSLYKKTMESKKAYDQKCRDADDAEQAFERVSANGHQKQVEKSQNKAKQCKESATEAERVYRQNIEQLERARTEWEQEHRTTCEAFQLQEFDRLTILRNALAVHCNQLSMQCVKDDELYEEVRLTLEGCDVEGDINGFIQSKSTGREPPAPVPYQNYYDREVTPLIGSPSIQPSCGVIKRFSGLLHGSPKTTPSAPAASTETLTPTPERNELVYASIEVQATQGNLNSSAQDYRALYDYTAQNSDELDISAGDILAVILEGEDGWWTVERNGQRGFVPGSYLEKLDYKDDDDK
notes: In vitro translated or expressed in COS cells; also called W232A PST PIP; PST PIP with an alanine replacement mutation at tryptophan232
